{"source": "paper PMC3057836", "about": "(The Journal of Biological Chemistry, 2010)", "proteins": {"B1": {"name": "CSpoIISA (His6 tag-free cytosolic domain of SpoIISA) (domain or fragment)", "chain": "FIFLSAYVKKLAGSELETDTREILEENNEMLHMYLNRLKTYQYLLKNEPIHVYYGSIDAYAEGIDKLLKTYADKMNLTASLCHYSTQADKDRLTEHMDDPADVQTRLDRKDVYYDQYGKVVLIPFTIETQNYVIKLTSDSIVTEFDYLLFTSLTSIYDLVLPIEEEGEG"}, "B2": {"name": "cytoplasmic fragment of SpoIISA (CSpoIISA) as found in the crystal of the CSpoIISA·SpoIISB complex (domain or fragment)", "chain": "GSELETDTREILEENNEMLHMYLNRLKTYQYLLKNEPIHVYYGSIDAYAEGIDKLLKTYADKMNLTASLCHYSTQADKDRLTEHMDDPADVQTRLDRKDVYYDQYGKVVLIPFTIETQNYVIKLTSDSIVTEFDYLLFTSLTSIYDLVLPIEEEGEG", "modifications": "selenomethionine-substituted"}}, "key": {"[1]": {"target": "the molecule itself", "assay": "SEC"}, "[2]": {"target": "the molecule itself", "assay": "crystal structure"}}}
{"protein": "B1", "values": [{"measurement": "stoichiometry N", "setting": "[1]", "value": 2}]}
{"protein": "B2", "values": [{"measurement": "stoichiometry N", "setting": "[2]", "value": 2}]}
